Assay results taken from patent publication US9060970B2, “Bridge-helix cap: target and method for inhibition of bacterial RNA polymerase” (priority 2011, dated 2015).
Values after ≈ are worked out from the molar mass of the structure shown. “Also recorded” adds a separate entry of the source. Marks after values point to notes of the source that are not given here.

Legend:
[1] = test system: E. coli D21f2tolC; experiment: Broth microdilution MIC, wild-type rpoC and rpoB; assay type: cell-based, Escherichia coli; conditions: LB broth, 16 h at 37° C., lowest concentration inhibiting growth by 95%
Description: (§1) Quantitation of Resistance to Sal. Resistance to Sal was quantified by performing broth microdilution assays. Single colonies were inoculated into 3 ml LB broth, and incubated 3-6 h at 37° C. with shaking. Diluted aliquots (2×10^4 cells in 98 μl LB broth; concentrations determined using OD600=1 for 10^9 cells) were dispensed into wells of a 96-well plate, were supplemented with 2 μl of a 2-fold dilution series of Sal in methanol (final concentrations of […], 0.390, 0.195, 0.0975, 0.0488, 0.0244, 0.0122, and 0.00609 μg/ml) or 2 μl of a solvent blank, and were incubated 16 h at 37° C. with shaking. The minimum inhibitory concentration (MIC) was defined as the lowest tested concentration of Sal that inhibited bacterial growth by 95%.
(§2) Quantitation of Cross-Resistance to Rifampin and CBR703. Cross-resistance levels were determined analogously to resistance levels, using 0.12-0.78 μg/ml of rifampin (Sigma, Inc.) and 0.39-25 μg/ml of CBR703 (Maybridge, Inc.).

[2] = test system: Sal-resistant mutants of E. coli D21f2tolC (rpoC / rpoB substitutions); experiment: Broth microdilution resistance / cross-resistance levels of spontaneous Sal-resistant mutants; assay type: cell-based, Escherichia coli; conditions: for cross-resistance level (MIC/MICwild-type): values <1 = hypersensitivity; for cross-resistance of Sal-resistant mutants (in words): broth microdilution (Table 4)
Description: (§3) Isolation of Sal-Resistant Mutants: Spontaneous Sal-Resistant Mutants. E. coli D21f2tolC (6) was cultured to saturation in 5 ml LB broth (7) at 37° C., cultures were centrifuged, and cell pellets (˜3×10^9 cells) were re-suspended in 50 μl LB broth and plated on LB agar (7) containing 1.2 μg/ml Sal (a concentration four times the minimal concentration required to prevent growth of wild-type cells under these conditions), and incubated 24-48 h at 37° C. Sal-resistant mutants were identified by the ability to form colonies on this medium and were confirmed by re-streaking on the same medium.
as §1, §2

[3] = test system: E. coli D21f2tolC; experiment: Spontaneous resistance frequency by plating on LB agar containing inhibitor; assay type: cell-based, Escherichia coli; conditions: LB agar, each compound at 4×MIC, colonies counted after 24 h at 37° C.
Source text: Sal-Resistant Mutants Map to RNAP-Subunit Genes. To determine whether Sal kills bacteria by inhibiting RNAP, spontaneous Sal-resistant mutants were isolated, and genes for RNAP subunits in Sal-resistant mutants were PCR-amplified and sequenced (FIG. 3A). Spontaneous Sal-resistant mutants were isolated by plating high-density cultures of E. coli D21f2tolC (˜3×10^9 cells per plate) on agar containing Sal and identifying rare resistant colonies (FIG. 3B). For each Sal-resistant mutant, genomic DNA was prepared, and the genes for the largest RNAP subunit and the second-largest RNAP subunit—rpoC encoding RNAP β′ subunit and rpoB encoding RNAP β subunit were PCR-amplified and sequenced (FIG. 3C).
Co-Administration of Sal and Rifampin Reduces Spontaneous Resistance to Undetectable Levels.
Co-Administration of Sal and CBR703 Reduces Spontaneous Resistance to Undetectable Levels.
as §3

[4] = biological target: E. coli RNAP, β subunit 675 Asp→Ala (Escherichia coli) (UniProt P0A8T7); experiment: cell-based or functional assay
[5] = biological target: E. coli RNAP, β′ subunit 782 Gly→Cys (Escherichia coli) (UniProt P0A8T7); experiment: cell-based or functional assay
[6] = biological target: E. coli RNAP, β′ subunit 738 Arg→Cys (Escherichia coli) (UniProt P0A8T7); experiment: cell-based or functional assay
[7] = biological target: E. coli RNAP, β′ subunit 780 Arg→Cys (Escherichia coli) (UniProt P0A8T7); experiment: cell-based or functional assay
[8] = biological target: E. coli RNAP, β′ subunit 763 Phe→Cys (Escherichia coli) (UniProt P0A8T7); experiment: cell-based or functional assay
[9] = biological target: E. coli RNAP, β′ subunit 758 Pro→Ser (Escherichia coli) (UniProt P0A8T7); experiment: cell-based or functional assay
[10] = biological target: Escherichia coli RNA polymerase with wild-type rpoC and wild-type rpoB, in E. coli D21f2tolC (Escherichia coli) (UniProt P0A8T7); experiment: cell-based or functional assay
[11] = biological target: E. coli RNAP, β′ subunit 738 Arg→His (Escherichia coli) (UniProt P0A8T7); experiment: cell-based or functional assay
[12] = biological target: E. coli RNAP, β′ subunit 758 Pro→Thr (Escherichia coli) (UniProt P0A8T7); experiment: cell-based or functional assay
[13] = biological target: E. coli RNAP, β subunit 526 His→Tyr (Escherichia coli) (UniProt P0A8T7); experiment: cell-based or functional assay
[14] = biological target: E. coli RNAP, β subunit 526 His→Asp (Escherichia coli) (UniProt P0A8T7); experiment: cell-based or functional assay
[15] = biological target: E. coli RNAP, β′ subunit 697 Met→Val (Escherichia coli) (UniProt P0A8T7); experiment: cell-based or functional assay
[16] = biological target: E. coli RNAP, β′ subunit 738 Arg→Ser (Escherichia coli) (UniProt P0A8T7); experiment: cell-based or functional assay
[17] = biological target: E. coli RNAP, β subunit 665 Ala→Glu (Escherichia coli) (UniProt P0A8T7); experiment: cell-based or functional assay
[18] = biological target: E. coli RNAP, β subunit 680 Leu→Met (Escherichia coli) (UniProt P0A8T7); experiment: cell-based or functional assay
[19] = biological target: E. coli RNAP, β′ subunit 690 Asn→Asp (Escherichia coli) (UniProt P0A8T7); experiment: cell-based or functional assay
[20] = biological target: E. coli RNAP, β′ subunit 779 Ala→Thr (Escherichia coli) (UniProt P0A8T7); experiment: cell-based or functional assay
[21] = biological target: E. coli RNAP, β subunit 569 Ile→Ser (Escherichia coli) (UniProt P0A8T7); experiment: cell-based or functional assay
[22] = biological target: E. coli RNAP, β subunit 677 Asn→His (Escherichia coli) (UniProt P0A8T7); experiment: cell-based or functional assay
[23] = biological target: E. coli RNAP, β subunit 561 Ile→Ser (Escherichia coli) (UniProt P0A8T7); experiment: cell-based or functional assay
[24] = biological target: E. coli RNAP, β′ subunit 738 Arg→Pro (Escherichia coli) (UniProt P0A8T7); experiment: cell-based or functional assay
[25] = biological target: E. coli RNAP, β′ subunit 748 Ala→Glu (Escherichia coli) (UniProt P0A8T7); experiment: cell-based or functional assay
[26] = biological target: E. coli RNAP, β subunit 516 Asp→Val (Escherichia coli) (UniProt P0A8T7); experiment: cell-based or functional assay
[27] = biological target: E. coli RNAP, β′ subunit 783 Leu→Arg (Escherichia coli) (UniProt P0A8T7); experiment: cell-based or functional assay
[28] = biological target: E. coli RNAP, β subunit 531 Ser→Leu (Escherichia coli) (UniProt P0A8T7); experiment: cell-based or functional assay
[29] = biological target: E. coli RNAP, β subunit 677 Asn→Lys (Escherichia coli) (UniProt P0A8T7); experiment: cell-based or functional assay
[30] = biological target: E. coli RNAP, β′ subunit 775 Ser→Ala (Escherichia coli) (UniProt P0A8T7); experiment: cell-based or functional assay
[31] = biological target: E. coli RNAP, β′ subunit 779 Ala→Val (Escherichia coli) (UniProt P0A8T7); experiment: cell-based or functional assay

Compound: ONC(=Nc1ccccc1)c1cccc(C(F)(F)F)c1 [CBR703]
- MIC with wild-type rpoC and wild-type rpoB [1]: 6.25 µg/mL
- cross-resistance level (MIC/MICwild-type) ([2]; Sal-resistant mutant rpoB (RNAP β subunit) 569 Ile→Ser): 1
- cross-resistance level (MIC/MICwild-type) ([2]; Sal-resistant mutant rpoB (RNAP β subunit) 675 Asp→Ala): ≦0.25
- cross-resistance level (MIC/MICwild-type) ([2]; Sal-resistant mutant rpoB (RNAP β subunit) 677 Asn→His): 1
- cross-resistance level (MIC/MICwild-type) ([2]; Sal-resistant mutant rpoB (RNAP β subunit) 677 Asn→Lys): ≦0.25
- cross-resistance level (MIC/MICwild-type) ([2]; Sal-resistant mutant rpoC (RNAP β′ subunit) 690 Asn→Asp): ≦0.25^b
- cross-resistance level (MIC/MICwild-type) ([2]; Sal-resistant mutant rpoC (RNAP β′ subunit) 697 Met→Val): 0.5
- cross-resistance level (MIC/MICwild-type) ([2]; Sal-resistant mutant rpoC (RNAP β′ subunit) 738 Arg→Cys): ≦0.25
- cross-resistance level (MIC/MICwild-type) ([2]; Sal-resistant mutant rpoC (RNAP β′ subunit) 738 Arg→Pro): ≦0.25
- cross-resistance level (MIC/MICwild-type) ([2]; Sal-resistant mutant rpoC (RNAP β′ subunit) 738 Arg→Ser): 1
- cross-resistance level (MIC/MICwild-type) ([2]; Sal-resistant mutant rpoC (RNAP β′ subunit) 748 Ala→Glu): ≦0.25
- cross-resistance level (MIC/MICwild-type) ([2]; Sal-resistant mutant rpoC (RNAP β′ subunit) 763 Phe→Cys): ≦0.25
- cross-resistance level (MIC/MICwild-type) ([2]; Sal-resistant mutant rpoC (RNAP β′ subunit) 779 Ala→Thr): 1
- cross-resistance level (MIC/MICwild-type) ([2]; Sal-resistant mutant rpoC (RNAP β′ subunit) 779 Ala→Val): ≦0.25
- cross-resistance level (MIC/MICwild-type) ([2]; Sal-resistant mutant rpoC (RNAP β′ subunit) 780 Arg→Cys): 0.5
- cross-resistance of Sal-resistant mutants (in words) [2]: no cross-resistance
- spontaneous resistance frequency [3]: 2×10^−10

Compound: CO[C@H]1/C=C/O[C@@]2(C)Oc3c(C)c(O)c4c(O)c(c(/C=N/N5CCN(C)CC5)c(O)c4c3C2=O)NC(=O)/C(C)=C\C=C\[C@H](C)[C@H](O)[C@@H](C)[C@@H](O)[C@@H](C)[C@H](OC(C)=O)[C@@H]1C [rifampin]
- MIC ([1]; Escherichia coli, D21F2TOLC): 0.098 µg/mL (≈ 0.119 µM)
- cross-resistance of Sal-resistant mutants (in words) [2]: not cross-resistant; also recorded: no cross-resistance
- hypersensitivity of Sal-resistant mutants ([2]; {}): 2 fold
- spontaneous resistance frequency [3]: 1×10^−8
- spontaneous resistance frequency ([3]; listed as Rif): 1 × 10^−8

Compound: salinamide A (peptide)
- resistance level (MIC/MICwild-type) (MIC/MICwild-type) [4]: > 16
- resistance level (MIC/MICwild-type), plasmid-borne rpoC (MIC/MICwild-type) [5]: 8
- resistance level (MIC/MICwild-type) (MIC/MICwild-type) [6]: > 16
- resistance level (MIC/MICwild-type) (MIC/MICwild-type) [7]: > 16
- resistance level (MIC/MICwild-type), plasmid-borne rpoC (MIC/MICwild-type) [7]: 8
- resistance level (MIC/MICwild-type) (MIC/MICwild-type) [8]: 16
- resistance level (MIC/MICwild-type) (MIC/MICwild-type) [9]: 16
- MIC (broth microdilution, D21f2tolC pRL663 and D21f2tolC pRL706 derivatives) [10]: 0.098 µg/ml
- MIC (broth microdilution, E. coli D21f2tolC) [10]: 0.024 µg/mL
- resistance level (MIC/MICwild-type) (MIC/MICwild-type) [11]: > 16
- resistance level (MIC/MICwild-type), plasmid-borne rpoC (MIC/MICwild-type) [12]: 4
- cross-resistance level (MIC/MICwild-type) to Sal (MIC/MICwild-type) [13]: 1
- cross-resistance level (MIC/MICwild-type) to Sal (MIC/MICwild-type) [14]: 1
- resistance level (MIC/MICwild-type) (MIC/MICwild-type) [15]: > 16
- resistance level (MIC/MICwild-type) (MIC/MICwild-type) [16]: > 16
- resistance level (MIC/MICwild-type), plasmid-borne rpoB (MIC/MICwild-type) [17]: 8
- resistance level (MIC/MICwild-type), plasmid-borne rpoB (MIC/MICwild-type) [18]: 4
- resistance level (MIC/MICwild-type) (MIC/MICwild-type) [19]: 16
- resistance level (MIC/MICwild-type) (MIC/MICwild-type) [20]: > 16
- resistance level (MIC/MICwild-type) (MIC/MICwild-type) [21]: > 16
- resistance level (MIC/MICwild-type) (MIC/MICwild-type) [22]: > 16
- resistance level (MIC/MICwild-type), plasmid-borne rpoB (MIC/MICwild-type) [23]: 2
- resistance level (MIC/MICwild-type) (MIC/MICwild-type) [24]: > 16
- resistance level (MIC/MICwild-type) (MIC/MICwild-type) [25]: 16
- cross-resistance level (MIC/MICwild-type) to Sal (MIC/MICwild-type) [26]: 1
- resistance level (MIC/MICwild-type) (MIC/MICwild-type) [27]: > 16
- cross-resistance level (MIC/MICwild-type) to Sal (MIC/MICwild-type) [28]: 1
- resistance level (MIC/MICwild-type) (MIC/MICwild-type) [29]: > 16
- resistance level (MIC/MICwild-type) (MIC/MICwild-type) [30]: 8
- resistance level (MIC/MICwild-type) (MIC/MICwild-type) [31]: > 16
